These results are taken from patent US20090011497 (published 2009).

Broadly, the Kd is the constant that tells how readily two partners part at equilibrium. Higher therefore signals weaker binding.

The target in this assay is T1, hu-MPL (human, UniProt P40238).
T1 chain: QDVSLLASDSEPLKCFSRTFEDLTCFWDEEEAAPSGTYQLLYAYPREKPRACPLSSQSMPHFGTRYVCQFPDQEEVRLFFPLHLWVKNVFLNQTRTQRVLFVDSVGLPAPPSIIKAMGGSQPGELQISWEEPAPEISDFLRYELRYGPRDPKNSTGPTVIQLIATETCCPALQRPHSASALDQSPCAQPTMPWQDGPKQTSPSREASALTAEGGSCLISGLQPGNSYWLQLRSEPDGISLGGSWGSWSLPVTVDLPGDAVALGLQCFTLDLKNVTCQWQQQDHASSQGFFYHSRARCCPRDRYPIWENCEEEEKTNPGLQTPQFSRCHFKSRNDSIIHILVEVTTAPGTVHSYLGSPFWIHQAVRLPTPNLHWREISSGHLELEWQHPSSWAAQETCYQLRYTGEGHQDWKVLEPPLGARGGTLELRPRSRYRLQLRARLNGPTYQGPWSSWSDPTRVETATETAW
Put plainly: SPR.

B1: TMP20 (peptide)
chain: YCDEGPTLKQWLVCLGLQ
B1 had an equilibrium dissociation constant (Kd) of 0.56 nM.
